Results from US20250388688A1 (ETHYREAL BIO, published 2025).

Tests used:
[1] = biological target: T1, soluble TSHR protein (ELISA coat) (human, UniProt P16473 22-260, limits assumed); test: ELISA, plate coated with soluble TSHR, antibody at 100 nM, anti-human IgG Fc-HRP;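 further: binding of antibody variants to soluble TSHR coated at 2 µg/ml, with colour developed using TMB substrate and stopped with H2SO4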
Experimental: (§1) Select TSHR antibody variants were tested for their ability to bind TSHR in an ELISA. Briefly, soluble TSHR protein was coated onto a plate at 2 μg/ml in phosphate buffered saline (PBS). The plate was washed with PBS and blocked with 4% skim milk in PBS.
(§2) Following wash steps with 1×PBS-Tween 0.05%, bound human IgG was detected with peroxidase conjugated goat anti-human IgG (Fc specific)-HRP at 1:5000 dilution and the ELISA was developed with TMB reagent followed by H2SO4.

[2] = biological target: T1, soluble TSHR protein (ELISA coat); test: ELISA, plate coated with soluble TSHR, antibody at 300 nM, anti-human IgG Fc-HRP;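 further: TSHR coated at 2 µg/ml, bound antibody revealed by goat anti-human IgG Fc HRP, color developed with TMB and stopped with H2SO4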
Experimental: as §1, §2

[3] = biological target: T1, soluble TSHR protein (ELISA coat); test: ELISA, plate coated with soluble TSHR, antibody at 33.3 nM, anti-human IgG Fc-HRP;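 further: binding of antibody variants to plate-bound soluble TSHR (coated at 2 µg/ml), with bound human IgG detected by HRP conjugate and colour developed using TMB substrate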
Experimental: as §1, §2

[4] = biological target: T2, Soluble TSHR (22-260) protein (human, UniProt P16473 22-260); test: SPR (Biacore T200, 25 C), antibody captured on anti-human Fc, soluble TSHR (22-260) as analyte, 1:1 fit;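 further: antibodies captured at 0.1 ug/mL on a CM5 sensor chip bearing anti-human Fc, with HBS-EP+ running buffer at pH 7.4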
T2 construct: range 22-260
Experimental: Measurements were taken on a Biacore T200 at 25 C using a CM5 chip coated with anti-human Fc. Test antibodies were captured at 0.1 ug/mL in HBS-EP+ (10 mM HEPES pH7.4, 150 mM NaCl, 3 mM EDTA, 0.05% Tween 20) assay buffer. […] A 1:1 binding kinetics fit was used to calculate kinetic parameters.

Row | Binder | ELISA (OD 450) at 100 nM [1] | ELISA (OD 450) at 300 nM [2] | ELISA (OD 450) at 33.3 nM [3] | Kd [4] | koff [4] | kon [4]
1 | parental TSHR-binding antibody (antibody, V domains shown, it has a human Fc (captured on anti-human Fc, detected with anti-human IgG Fc); also called parental antibody; parental anti-TSHR antibody) VH: EVQLVQSGAEVKKPGQSLKISCKASGYSLTDNWIGWVRQKPGKGLEWMGIIYPGDSDTRYSPSFQGQVTISADKSINTAYLQWSSLKASDTAIYYCVGLDWNYNPLRYWGPGTLVTVSS VL: QSVLTQPPSVSAAPGQKVTISCSGSSSDIGSNYVSWYQQFPGTAPKLLIYDNNKRPSAIPDRFSGSKSGTSATLGITGLQTGDEADYYCGTWDSRLGIAVFGGGTQLTVL | 0.43 OD 450 | 0.461 OD 450 | 0.406 OD 450 | – | – | –
2 | TSHB-12 (antibody, V domains shown) VH: EVQLVQSGAEVKKPGASVKVSCKASGYSLTDNWIGWVRQAPGQGLEWMGIIYPGDSDTRYAQKFQGRVTMTADKSTSTVYMELSSLRSEDTAVYYCVGLDWNYNPLRYWGQGTLVTVSS VL: QSVLTQPPSVSAAPGQKVTISCSGSSSDIGSNYVSWYQQFPGTAPKLLIYDNNKRPSAIPDRFSGSKSGTSATLGITGLQTGDEADYYCGTWDSRLGIAVFGGGTQLTVL | 0.475 OD 450 | 0.52 OD 450 | 0.402 OD 450 | – | – | –
3 | TSHB-8 (antibody, V domains shown) VH: EVQLVQSGAEVKKPGESLKISCKASGYSLTDNWIGWVRQKPGKGLEWMGIIYPGDSDTRYSPSFQGQVTISADKSISTAYLQWSSLKASDTAMYYCVGLDWNYNPLRYWGQGTLVTVSS VL: QSVLTQPPSVSAAPGQKVTISCSGSSSDIGSNYVSWYQQFPGTAPKLLIYDNNKRPSAIPDRFSGSKSGTSATLGITGLQTGDEADYYCGTWDSRLGIAVFGGGTQLTVL | 0.551 OD 450 | 0.586 OD 450 | 0.471 OD 450 | 2.25 nM | 0.000344 s⁻¹ | 153000 M⁻¹ s⁻¹
4 | TSHB-10 (antibody, V domains shown) VH: EVQLVQSGAEVKKPGESLKISCKASGYSLTDNWIGWVRQKPGKGLEWMGIIYPGDSDTRYSPSFKGQVTISADKSISTAYLQWSSLKASDTAIYYCVGLDWNYNPLRYWGQGTLVTVSS VL: QSVLTQPPSVSAAPGQKVTISCSGSSSDIGSNYVSWYQQFPGTAPKLLIYDNNKRPSAIPDRFSGSKSGTSATLGITGLQTGDEADYYCGTWDSRLGIAVFGGGTQLTVL | 0.496 OD 450 | 0.557 OD 450 | 0.44 OD 450 | 2.94 nM | 0.000338 s⁻¹ | 115000 M⁻¹ s⁻¹
5 | TSHB-13 (antibody, V domains shown) VH: EVQLVQSGAEVKKPGQSLKISCKASGYSLTDNWIGWVRQKPGKGLEWMGIIYPGDSDTRYSPSFQGQVTISADKSINTAYLQWSSLKASDTAIYYCVGLDWNYNPLRYWGPGTLVTVSS VL: QSVLTQPPSVSAAPGQKVTISCSGSSSDIGSNYVSWYQQLPGTAPKLLIYDNNKRPSGIPDRFSGSKSGTSATLGITGLQTGDEADYYCGTWDSRLGIAVFGGGTQLTVL | 0.495 OD 450 | 0.561 OD 450 | 0.459 OD 450 | – | – | –
6 | TSHB-5 (antibody, V domains shown) VH: EVQLVQSGAEVKKPGESLKISCKASGYQLTDNWIGWVRQKPGKGLEWMGIIYPGDSDTRYSPSFQGQVTISADKSISTAYLQWSSLKASDTAIYYCVGLDWNYNPLRYWGQGTLVTVSS VL: QSVLTQPPSVSAAPGQKVTISCSGSSSDIGSNYVSWYQQFPGTAPKLLIYDNNKRPSAIPDRFSGSKSGTSATLGITGLQTGDEADYYCGTWDSRLGIAVFGGGTQLTVL | 0.498 OD 450 | 0.578 OD 450 | 0.414 OD 450 | 2.82 nM | 0.00044 s⁻¹ | 156000 M⁻¹ s⁻¹
7 | TSHB-7 (antibody, V domains shown) VH: EVQLVQSGAEVKKPGESLKISCKASGYSLKDNWIGWVRQKPGKGLEWMGIIYPGDSDTRYSPSFQGQVTISADKSISTAYLQWSSLKASDTAIYYCVGLDWNYNPLRYWGQGTLVTVSS VL: QSVLTQPPSVSAAPGQKVTISCSGSSSDIGSNYVSWYQQFPGTAPKLLIYDNNKRPSAIPDRFSGSKSGTSATLGITGLQTGDEADYYCGTWDSRLGIAVFGGGTQLTVL | 0.491 OD 450 | 0.555 OD 450 | 0.443 OD 450 | 4.11 nM | 0.000477 s⁻¹ | 116000 M⁻¹ s⁻¹
8 | TSHB-1 (antibody, V domains shown) VH: EVQLVQSGAEVKKPGESLKISCKASGYSLTDNWIGWVRQKPGKGLEWMGIIYPGDSDTRYSPSFQGQVTISADKSISTAYLQWSSLKASDTAIYYCVGLDWNYNPLRYWGQGTLVTVSS VL: QSVLTQPPSVSAAPGQKVTISCSGSSSDIGSNYVSWYQQFPGTAPKLLIYDNNKRPSAIPDRFSGSKSGTSATLGITGLQTGDEADYYCGTWDSRLGIAVFGGGTQLTVL | 0.506 OD 450 | 0.641 OD 450 | 0.442 OD 450 | 1.7 nM | 0.000273 s⁻¹ | 161000 M⁻¹ s⁻¹
9 | TSHB-6 (antibody, V domains shown) VH: EVQLVQSGAEVKKPGESLKISCKASGYSLNDNWIGWVRQKPGKGLEWMGIIYPGDSDTRYSPSFQGQVTISADKSISTAYLQWSSLKASDTAIYYCVGLDWNYNPLRYWGQGTLVTVSS VL: QSVLTQPPSVSAAPGQKVTISCSGSSSDIGSNYVSWYQQFPGTAPKLLIYDNNKRPSAIPDRFSGSKSGTSATLGITGLQTGDEADYYCGTWDSRLGIAVFGGGTQLTVL | 0.493 OD 450 | 0.548 OD 450 | 0.45 OD 450 | 3.73 nM | 0.000532 s⁻¹ | 142000 M⁻¹ s⁻¹
10 | TSHB-25 (antibody, V domains shown) VH: EVQLVQSGAEVKKPGASVKVSCKASGYSLTDNWIGWVRQAPGQGLEWMGIIYPGDSDTRYAQKFQGRVTMTADKSTSTVYMELSSLRSEDTAVYYCVGLDWNYNPLRYWGQGTLVTVSS VL: QSVLTQPPSVSGAPGQRVTISCSGSSSDIGSNYVSWYQQLPGTAPKLLIYDNNKRPSGVPDRFSGSKSGTSASLAITGLQAEDEADYYCGTWDSRLGIAVFGGGTKLTVL | 0.409 OD 450 | 0.367 OD 450 | 0.38 OD 450 | – | – | –

Further lines, results first:

Row | ELISA (OD 450) at 100 nM [1] | ELISA (OD 450) at 300 nM [2] | ELISA (OD 450) at 33.3 nM [3] | Kd [4] | koff [4] | kon [4] | Binder
11 | 0.407 OD 450 | 0.467 OD 450 | 0.351 OD 450 | 3.01 nM | 0.000533 s⁻¹ | 177000 M⁻¹ s⁻¹ | TSHB-3 (antibody, V domains shown) VH: EVQLVQSGAEVKKPGESLKISCKASGYSLTDNWIGWVRQKPGKGLEWMGIIYPGDSDTRYSPSFQGQVTISADKSISTAYLQWSSLKASDTAIYYCVGLEWNYNPLRYWGQGTLVTVSS VL: QSVLTQPPSVSAAPGQKVTISCSGSSSDIGSNYVSWYQQFPGTAPKLLIYDNNKRPSAIPDRFSGSKSGTSATLGITGLQTGDEADYYCGTWDSRLGIAVFGGGTQLTVL
12 | 0.22 OD 450 | 0.289 OD 450 | 0.159 OD 450 | 53.3 nM | 0.000643 s⁻¹ | 12100 M⁻¹ s⁻¹ | TSHB-11 (antibody, V domains shown) VH: EVQLVQSGAEVKKPGESLKISCKASGYSLTDNWIGWVRQKPGKGLEWMGIIYPGDSDTRYSPSFQGQVTISADKSISTAYLQWSSLKASDTAIYYCVGTDWNYNPLRYWGQGTLVTVSS VL: QSVLTQPPSVSAAPGQKVTISCSGSSSDIGSNYVSWYQQFPGTAPKLLIYDNNKRPSAIPDRFSGSKSGTSATLGITGLQTGDEADYYCGTWDSRLGIAVFGGGTQLTVL
13 | 0.522 OD 450 | 0.572 OD 450 | 0.477 OD 450 | 2.52 nM | 0.000352 s⁻¹ | 140000 M⁻¹ s⁻¹ | TSHB-14 (antibody, V domains shown) VH: EVQLVQSGAEVKKPGQSLKISCKASGYSLTDNWIGWVRQKPGKGLEWMGIIYPGDSDTRYSPSFQGQVTISADKSINTAYLQWSSLKASDTAIYYCVGLDWNYNPLRYWGPGTLVTVSS VL: QSVLTQPPSVSAAPGQKVTISCSGSSSDIGSNYVSWYQQLPGTAPKLLIYDNNKRPSGIPDRFSGSKSGTSATLGITGLQTGDEADYYCGTWDSRWGIAVFGGGTQLTVL
14 | 0.453 OD 450 | 0.542 OD 450 | 0.374 OD 450 | 2.41 nM | 0.000362 s⁻¹ | 150000 M⁻¹ s⁻¹ | TSHB-4 (antibody, V domains shown) VH: EVQLVQSGAEVKKPGESLKISCKASGYELTDNWIGWVRQKPGKGLEWMGIIYPGDSDTRYSPSFQGQVTISADKSISTAYLQWSSLKASDTAIYYCVGLDWNYNPLRYWGQGTLVTVSS VL: QSVLTQPPSVSAAPGQKVTISCSGSSSDIGSNYVSWYQQFPGTAPKLLIYDNNKRPSAIPDRFSGSKSGTSATLGITGLQTGDEADYYCGTWDSRLGIAVFGGGTQLTVL
15 | 0.493 OD 450 | 0.53 OD 450 | 0.447 OD 450 | – | – | – | TSHB-22 (antibody, V domains shown) VH: EVQLVQSGAEVKKPGQSLKISCKASGYSLTDNWIGWVRQKPGKGLEWMGIIYPGDSDTRYSPSFQGQVTISADKSINTAYLQWSSLKASDTAIYYCVGLDWNYNPLRYWGPGTLVTVSS VL: QSVLTQPPSVSGAPGQRVTISCSGSSSDIGSNYVSWYQQLPGTAPKLLIYDNNKRPSGVPDRFSGSKSGTSASLAITGLQAEDEADYYCGTWDSRLGIAVFGGGTKLTVL
16 | 0.452 OD 450 | 0.478 OD 450 | 0.355 OD 450 | 6.53 nM | 0.000676 s⁻¹ | 104000 M⁻¹ s⁻¹ | TSHB-9 (antibody, V domains shown) VH: EVQLVQSGAEVKKPGESLKISCKASGYSLTDNWTGWVRQKPGKGLEWMGIIYPGDSDTRYSPSFQGQVTISADKSISTAYLQWSSLKASDTAIYYCVGLDWNYNPLRYWGQGTLVTVSS VL: QSVLTQPPSVSAAPGQKVTISCSGSSSDIGSNYVSWYQQFPGTAPKLLIYDNNKRPSAIPDRFSGSKSGTSATLGITGLQTGDEADYYCGTWDSRLGIAVFGGGTQLTVL
